Test results reported in patent US8926955B2, “Synthesis of polymer conjugates of indolocarbazole compounds” (priority 2008, dated 2015).
Entries after “also recorded” stand apart in the source; their conditions may differ. Like-named read-outs stand apart in the source and are kept apart here.

Columns and labels:
[1] = Toxicokinetics (plasma levels) in 13 week dermal rabbit study; format: in vivo
Text: Blood samples were taken from each animal on Day 1 and Week 13 for toxicokinetic evaluations.

[2] = system: Sprague Dawley rats; experiment: Acute intravenous toxicity study in rats; format: in vivo, rat
Protocol: The acute toxicity of the conjugate of Example 3 was investigated after intravenous administration (10 ml/kg in physiological saline) of a single dose to Sprague Dawley rats followed by a 14-day observation period.
A single group of 5 male and 5 female animals was dosed at 2000 mg/kg. Animals were dosed with the formulated test item at the selected level, just after its preparation, by injection into the tail vein using a hypodermic needle attached to a syringe of suitable capacity, at a dose volume of 10 ml/kg body weight. Throughout the study, all animals were checked twice daily.
Animals were examined for signs of reaction to treatment on dosing, approximately 30 min, 2 and 4 hours after dosing on day 1, then daily for a total of 14 days. Each animal was weighed on the day of allocation to study, on the day of dosing (day 1) and on days 2, 8 and 15. All animals were killed at the end of the observation period and subjected to necropsy examination.

[3] = Solubility in RPMI 1640 complete medium; format: physicochemical
[4] = system: mouse lymphoma L5178Y cells; experiment: Preliminary cytotoxicity assay in L5178Y cells; format: cell-based
Protocol: A preliminary cytotoxicity assay was performed. Based on the solubility results, the test item was assayed at a maximum dose level of 5000 μg/ml both in the absence and presence of S9 metabolism. A wide range of lower dose levels were included in the treatment series: 2500, 1250, 625, 313, 156, 78.1, 39.1 and 19.5 μg/ml.

[5] = system: Escherichia coli WP2; experiment: Photomutagenicity assay in bacteria (reverse mutation, UV light); format: cell-based; conditions: up to 5000 μg/plate
Text: (§1) The test item was examined for photomutagenic activity by assaying for reverse mutation to prototrophy in the prokaryotic organisms, Salmonella typhimurium and Escherichia coli, after exposure to light.
(§2) The three S. typhimurium tester strains, TA1537, TA98 and TA100, and the E. coli tester strain, WP2, were used. The bacteria, co-plated with the test item in soft-agar, were irradiated with various doses of UV light.
(§3) The procedures adopted were developed by Ames et al., 1975 and revised by Maron and Ames, 1983.
(§4) The test item was used as a solution in sterile distilled water.
(§5) The test item was assayed in the toxicity test at a maximum dose level of 5000 μg/plate and at four lower concentrations spaced at approximately half-log intervals: 1580, 500, 158 and 50.0 μg/plate. Two widely-spaced UV doses were selected for each bacterial tester strain on the basis of the maximum tolerated dose.
(§6) Two independent experiments were performed using the plate incorporation method.
(§7) The test item was assayed at a maximum dose level of 5000 μg/plate and at four lower dose levels spaced by two-fold dilutions: 2500, 1250, 625 and 313 μg/plate. The prepared plates were exposed to the following UVA and UVB doses (Table 5): […]

[6] = system: Salmonella typhimurium TA1537, TA98 and TA100; experiment: as above; format: cell-based; conditions: up to 5000 μg/plate
Text: as §1, §2, §3, §4, §5, §6, §7

[7] = system: Balb/c 3T3 cells; format: cell-based; conditions: for IC50 (neutral red uptake): up to 1000 μg/ml
Protocol: The potential in vitro phototoxicity of the test item was evaluated by the measurements of neutral red uptake for cellular toxicity on cultures of Balb/c 3T3 cells treated with different doses of the test item and exposed to UVA irradiation. Test item solutions were prepared using Earle's Balanced Salt Solution (EBSS).
A preliminary dose-range finding experiment in the presence (+UVA) and in the absence (−UVA) of light was undertaken in order to select appropriate dose levels for the main assays. The test item was assayed at a maximum dose level of 1000 μg/ml (the upper limit indicated in the study protocol) and at a wide range of lower dose levels: 500, 250, 125, 62.5, 31.3, 15.6 and 7.81 μg/ml. […] In this case the chemical is considered to be non-phototoxic. The same dose range was used for the main assay.
A main experiment was performed using the following dose levels: 1000, 500, 250, 125, 62.5, 31.3, 15.6 and 7.81 μg/ml.

[8] = rat, in vivo
Protocol: The purpose of this study was to evaluate the toxicity of the test item in rats after daily dermal administration (6 hours exposure) over a period of 13 weeks and to investigate possible recovery from any potential treatment-related effects over a period of 4 consecutive weeks. The toxicokinetic profile was also evaluated.
Three groups, each of 10 male and 10 female Sprague Dawley rats (cf. Table 1: male numbered with even numbers, female numbered with uneven numbers) received the test item by dermal application at dosages of 0.5, 2.5 and 5 mg/kg/day for 13 consecutive weeks (Table 1: group numbers 2-4). A fourth similarly constituted group received the vehicle alone (purified water) and acted as a control (Table 1: group number 1). Five additional animals for each sex were included in the high and control groups (Table 1: group numbers 4 and 1, respectively) for recovery assessment. In addition, 3 satellite groups for toxicokinetics, including 9 males and 9 females (Table 2: group numbers 5-8, respectively), and 1 control group, including 3 males and 3 females (Table 2: group number 5), were treated as the main groups for toxicokinetic evaluations.

[9] = system: New Zealand White Specific Pathogen Free (SPF) rabbits; conditions: rabbit, in vivo
Protocol: Three groups, each of 6 male and 6 female New Zealand White Specific Pathogen Free (SPF) rabbits (cf. Table 3: male numbered with even numbers, female numbered with uneven numbers), received the test item by dermal application at dosages of 0.5, 2.5 and 5 mg/animal/day for 13 consecutive weeks (Table 3, group numbers 2-4, respectively). A fourth similarly constituted group received the vehicle alone (purified water) and acted as a control (Table 3, group number 1). Control and high dose groups (Table 3, group numbers 4 and 1, respectively). included 3 additional animals per sex for recovery assessment.
The following investigations were performed: daily clinical signs, body weight, food consumption, macroscopic observations of the treatment sites, clinical pathology investigations, terminal body weight, organ weight, post mortem macroscopic observations and histopathological examination.
The treatment sites were examined, each day, approximately 3 hours after the start of dosing. Irritation of the sites, when compared to the adjacent untreated skin, was assigned a numerical value according to the table below:

[10] = system: Sprague Dawley rats; experiment: 13 week dermal toxicity study in rats with 4 week recovery
Protocol: The purpose of this study was to evaluate the toxicity of the test item in rats after daily dermal administration (6 hours exposure) over a period of 13 weeks and to investigate possible recovery from any potential treatment-related effects over a period of 4 consecutive weeks.
Three groups, each of 10 male and 10 female Sprague Dawley rats (cf. Table 1: male numbered with even numbers, female numbered with uneven numbers) received the test item by dermal application at dosages of 0.5, 2.5 and 5 mg/kg/day for 13 consecutive weeks (Table 1: group numbers 2-4). A fourth similarly constituted group received the vehicle alone (purified water) and acted as a control (Table 1: group number 1). Five additional animals for each sex were included in the high and control groups (Table 1: group numbers 4 and 1, respectively) for recovery assessment.
The treatment sites were examined each day, approximately 3 hours after the start of dosing. Irritation of the sites, when compared to the adjacent untreated skin, was assigned a numerical value according to the table below:

[11] = 0.5, 2.5 and 5 mg/kg/day dermal, 13 weeks

With “oxazolidindionic conjugate of K252a with PEG (1892 MW) [test item]” the accumulation ([1]; daily dermal administration over 13 weeks) was “no accumulation occurred”, the “absorption through the dermal route” value ([1]; rabbit plasma sample analyses) was “only minimally absorbed” and the absorption ([1]; week 13, dermal) was “Very low absorption”. The “internal abnormalities at necropsy” value ([2]; 2000 mg/kg i.v.) was “No internal abnormalities were detected”, the clinical signs ([2]; 2000 mg/kg i.v., all animals on the day of dosing) was “reduced activity and piloerection” and the “changes in body weight” value ([2]; 2000 mg/kg i.v., end of study) was “within the expected range”. The “abnormalities at the injection site” value ([2]; 2000 mg/kg i.v., tail vein) was “No abnormalities were observed at the injection site”, the mortality ([2]; 2000 mg/kg single intravenous dose, 14-day observation) was “No mortality occurred” and the local tolerance ([2]; injected into the tail vein at 2000 mg/kg) was “locally tolerated”. For the same substance, the toxic effect ([2]; single intravenous administration at 2000 mg/kg body weight) was “no toxic effect”, the solubility [3] was ≥ 50.0 mg/mL and the relative survival ([4]; absence of S9, long treatment time, two higher concentrations, % of concurrent negative control) was “approximately 60%”. The relative survival ([4]; absence of S9, short treatment time, several concentrations, no dose relationship) was “slight reduction of relative survival”, the toxicity ([4]; presence of S9, up to 5000 μg/ml) was “no relevant toxicity was observed” and the “reverse mutation (revertant colonies) in the presence of UV light” value ([5]; UVA and UVB) was “did not induce two-fold increases in the number of revertant colonies; also recorded: does not induce reverse mutation”. For the same substance, the toxicity ([5]; any UV irradiation dose) was “No relevant toxicity was observed”, the “reverse mutation (revertant colonies) in the presence of UV light” value ([6]; UVA) was “did not induce two-fold increases in the number of revertant colonies; also recorded: does not induce reverse mutation” and the toxicity ([6]; any UV irradiation dose) was “No relevant toxicity was observed”. For the same substance, the “Photo Irritation Factor (PIF)” value [7] was “could not be calculated”, the “mean photo effect (MPE)” value [7] was 0.089 and the phototoxicity classification [7] was “non phototoxic”. The “IC50 (neutral red uptake)” value ([7]; main experiment, both curves (+UV and -UV)) was “no IC50 value”, the “IC50 (neutral red uptake)” value ([7]; preliminary dose-range finding, +UVA and -UVA) was “no IC50 value was calculable” and the “plasma levels / incidence of absorption” value [8] was “a lower incidence of absorption was detected”. The “macroscopic and microscopic observations” value [9] was “no treatment-related changes were noted”, the adverse effects ([10]; 0.5, 2.5 and 5 mg/kg/day) was “No adverse effects were seen at any of the dose levels” and the body weight [10, 11] was “No relevant differences in body weight were recorded”. The clinical signs [10, 11] was “no treatment-related clinical signs were observed”, the food consumption [10, 11] was “comparable to controls” and the mortality [10, 11] was “No treatment-related mortality occurred”. The “absolute and relative organ weights” value ([10]; 13 weeks dermal) was “No changes in absolute and relative organ weights of toxicological significance were observed”, the “clinical chemistry and urinalysis” value ([10]; 13 weeks dermal) was “No changes of toxicological significance were observed” and the “macroscopic and microscopic observations” value ([10]; 13 weeks dermal) was “No treatment-related changes were noted”. For the same substance, the terminal body weight ([10]; 13 weeks dermal) was “comparable between control and treated groups”, the “No Observed Adverse Effect Level (NOAEL)” value ([10]; daily dermal administration to rats, 13 weeks) was 5 mg/kg/day and the ophthalmic examination ([10]; end of the treatment period) was “No treatment-related lesions were detected”. The “irritation index at treated sites” value ([10]; erythema/oedema score 0-4, daily dermal, 13 weeks) was 0 and the haematology ([10]; partial reversibility at end of recovery period) was “leucopenia observed in animals of high dose group and in females of medium dose group”.
